Measurements from patent publication US20200390902A1, “Antibody-Drug Conjugates Targeted at Human Aspartyl-(Asparaginyl)-B-Hydroxylase (HAAH)” (Panacea Pharmaceuticals, Inc., priority 2017, published 2020).

How the values were obtained:
HAAH catalytic domain = target: T1, HAAH catalytic domain (human, UniProt Q12797); assay: ELISA on plates coated with HAAH catalytic domain
T1 sequence: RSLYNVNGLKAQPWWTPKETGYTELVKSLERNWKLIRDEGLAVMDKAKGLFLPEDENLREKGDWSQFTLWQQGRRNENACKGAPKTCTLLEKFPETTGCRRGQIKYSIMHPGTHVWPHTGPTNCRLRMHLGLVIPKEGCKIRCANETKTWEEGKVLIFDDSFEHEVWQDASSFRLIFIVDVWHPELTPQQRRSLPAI
Method: The catalytic domain of HAAH (HAAH-cat) is exposed at the surface of HAAH-expressing cancer cells. The binding of SNS622-MC-DM1 at different drug-antibody ratio (DAR) and pH to HAAH-cat was measured using IgG1λ as control. The plates were coated with HAAH by treating with […] HAAH catalytic domain overnight. Following blocking with 1% Non-Fat Dry Milk in PBS for one hour, the plates were incubated for 45 minutes at 37° C. with 11.1 mg/ml IgG1λ; 9.6 mg/ml SNS622; 4.8 mg/ml SNS622-MC-DM1 at DAR 2.5, pH 7.0; 5.9 mg/ml SNS622-MC-DM1 at DAR 2.5, pH8.0; 6.1 mg/ml SNS622-DM1 at DAR 5.0, pH 7.0; 5.7 mg/ml SNS622-MC-DM1 at DAR 5.0, pH8.0; 4.1 mg/ml SNS622-DM1 at DAR 10.0, pH7.0; or 4.4 mg/ml SNS622-MC-DM1 at DAR 10.0, pH8.0. Following 5 PBS rinses the plates were incubated with 1:100 goat anti-human IgG (8)-HRP for 30 minutes at 37° C., Following five PBS rinses TMB substrate was added, and after a 15-minute incubation at room temperature, Stop solution was added to terminate the reactions. The plates were read at 450 nm using a 96-well plate reader (ELx808, BioTek). The binding results are shown below in Table VI

[1] = target: T2, Human aspartyl (asparaginyl) β-hydroxylase (HAAH) (human, UniProt Q12797); assay: cell-based or functional assay
T2 sequence: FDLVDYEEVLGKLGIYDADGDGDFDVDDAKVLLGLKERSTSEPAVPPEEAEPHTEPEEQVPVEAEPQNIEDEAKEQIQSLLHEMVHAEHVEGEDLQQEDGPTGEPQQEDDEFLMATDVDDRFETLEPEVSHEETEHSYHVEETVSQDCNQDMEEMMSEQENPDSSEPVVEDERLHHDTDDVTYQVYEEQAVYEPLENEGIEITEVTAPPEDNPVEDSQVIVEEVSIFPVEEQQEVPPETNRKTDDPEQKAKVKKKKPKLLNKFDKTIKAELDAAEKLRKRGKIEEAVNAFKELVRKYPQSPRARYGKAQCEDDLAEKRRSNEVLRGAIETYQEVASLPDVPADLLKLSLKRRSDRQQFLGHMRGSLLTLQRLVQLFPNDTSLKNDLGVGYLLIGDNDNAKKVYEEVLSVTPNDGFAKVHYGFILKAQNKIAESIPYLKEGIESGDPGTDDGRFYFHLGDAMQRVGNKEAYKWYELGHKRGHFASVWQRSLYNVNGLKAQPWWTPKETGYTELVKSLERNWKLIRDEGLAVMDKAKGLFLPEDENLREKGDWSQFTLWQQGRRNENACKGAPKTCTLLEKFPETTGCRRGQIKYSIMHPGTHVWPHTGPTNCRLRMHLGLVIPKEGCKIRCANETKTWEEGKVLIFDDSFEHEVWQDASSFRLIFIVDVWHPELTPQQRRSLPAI

[2] = target: T2, Human aspartyl (asparaginyl) …; assay: immunoassay on fixed H460 cells; printed as 'binding affinities'
[3] = target: Human aspartyl (asparaginyl) β-hydroxylase (HAAH) (human) (UniProt Q12797)
[4] = target: Human aspartyl (asparaginyl) β-hydroxylase (HAAH) (human) (UniProt Q12797); remark: listed apart in the source
H460 lysate = assay: ELISA on plates coated with H460 lysate, percent of loading amount bound

B1: SNS622-DM1B1 (antibody, V domains shown)
VH: QVQLQQSGPGLVKPSQTLSLTCAISGDSVSSNSAAWNWIRQSPSRGLEWLGRTYYRSKWYNDYAVSVKSRITINPDTSKNQFSLQLNSVTPEDTAVYYCARTGYSSSWVVNFDYWGQGTLVTVSS
VL: QPVLTQSPSASGTPGQRVTISCSGSSSNIGSNYVYWYQQLPGTAPKLLIYKNNQRPSGVPDRFSGSKSGTAASLAISGLQSEDEADYYCAAWDDSLRGYVFGTGTKLTVLG
modifications: MC-DM1 on cysteine thiols of reduced disulfide bonds, positions not given; reaction DAR 5:1, pH 7, final DAR 3.22; MC-DM1 on cysteine thiols of reduced disulfide bonds, positions not given
% Binding (HAAH catalytic domain): 81.2%

B2: SNS622-MC-vc-PAB-DM1 (antibody, V domains shown)
VH: QVQLQQSGPGLVKPSQTLSLTCAISGDSVSSNSAAWNWIRQSPSRGLEWLGRTYYRSKWYNDYAVSVKSRITINPDTSKNQFSLQLNSVTPEDTAVYYCARTGYSSSWVVNFDYWGQGTLVTVSS
VL: QPVLTQSPSASGTPGQRVTISCSGSSSNIGSNYVYWYQQLPGTAPKLLIYKNNQRPSGVPDRFSGSKSGTAASLAISGLQSEDEADYYCAAWDDSLRGYVFGTGTKLTVLG
modifications: MC-vc-PAB-DM1 on cysteine thiols of reduced disulfide bonds, positions not given; reaction DAR 10:1 gives final DAR 6.56 (also made at 2.5:1 and 5:1); MC-vc-PAB-DM1 on cysteine thiols of reduced disulfide bonds, positions not given
IC50 of MTS, H460 cells, 72 h [1]: 123 nM

B3: SNS622-DM1C2 (antibody, V domains shown)
VH: QVQLQQSGPGLVKPSQTLSLTCAISGDSVSSNSAAWNWIRQSPSRGLEWLGRTYYRSKWYNDYAVSVKSRITINPDTSKNQFSLQLNSVTPEDTAVYYCARTGYSSSWVVNFDYWGQGTLVTVSS
VL: QPVLTQSPSASGTPGQRVTISCSGSSSNIGSNYVYWYQQLPGTAPKLLIYKNNQRPSGVPDRFSGSKSGTAASLAISGLQSEDEADYYCAAWDDSLRGYVFGTGTKLTVLG
modifications: MC-DM1 on cysteine thiols of reduced disulfide bonds, positions not given; reaction DAR 10:1, pH 8, final DAR 5.81; MC-DM1 on cysteine thiols of reduced disulfide bonds, positions not given
% Binding (HAAH catalytic domain): 80.5%

B4: SNS622-MC-PEG4-vc-PAB-DMEA-DUO (antibody, V domains shown)
VH: QVQLQQSGPGLVKPSQTLSLTCAISGDSVSSNSAAWNWIRQSPSRGLEWLGRTYYRSKWYNDYAVSVKSRITINPDTSKNQFSLQLNSVTPEDTAVYYCARTGYSSSWVVNFDYWGQGTLVTVSS
VL: QPVLTQSPSASGTPGQRVTISCSGSSSNIGSNYVYWYQQLPGTAPKLLIYKNNQRPSGVPDRFSGSKSGTAASLAISGLQSEDEADYYCAAWDDSLRGYVFGTGTKLTVLG
modifications: MC-PEG4-vc-PAB-DMEA-duocarmycin on cysteine thiols of reduced disulfide bonds, positions not given; reaction DAR 2.2:1, final DAR 1.92:1; MC-PEG4-vc-PAB-DMEA-duocarmycin on cysteine thiols of reduced disulfide bonds, positions not given
Kd [2]: ~0.5 nM
IC50, MOLM-14 cell viability, MTS assay, 24 h [3]: 60 nM
EC50, H460 cell viability, MTS assay, 24 h [4]: 300 nM

B5: SNS622-DM1A2 (antibody, V domains shown)
VH: QVQLQQSGPGLVKPSQTLSLTCAISGDSVSSNSAAWNWIRQSPSRGLEWLGRTYYRSKWYNDYAVSVKSRITINPDTSKNQFSLQLNSVTPEDTAVYYCARTGYSSSWVVNFDYWGQGTLVTVSS
VL: QPVLTQSPSASGTPGQRVTISCSGSSSNIGSNYVYWYQQLPGTAPKLLIYKNNQRPSGVPDRFSGSKSGTAASLAISGLQSEDEADYYCAAWDDSLRGYVFGTGTKLTVLG
modifications: MC-DM1 on cysteine thiols of reduced disulfide bonds, positions not given; reaction DAR 2.5:1, pH 8, final DAR 2.10; MC-DM1 on cysteine thiols of reduced disulfide bonds, positions not given
% Binding (HAAH catalytic domain): 84.8%

B6: SNS622-MC-vc-PAB-MMAE (antibody, V domains shown)
VH: QVQLQQSGPGLVKPSQTLSLTCAISGDSVSSNSAAWNWIRQSPSRGLEWLGRTYYRSKWYNDYAVSVKSRITINPDTSKNQFSLQLNSVTPEDTAVYYCARTGYSSSWVVNFDYWGQGTLVTVSS
VL: QPVLTQSPSASGTPGQRVTISCSGSSSNIGSNYVYWYQQLPGTAPKLLIYKNNQRPSGVPDRFSGSKSGTAASLAISGLQSEDEADYYCAAWDDSLRGYVFGTGTKLTVLG
modifications: MC-vc-PAB-MMAE on cysteine thiols of reduced disulfide bonds, positions not given; reaction DAR 10:1, final DAR 6.31; MC-vc-PAB-MMAE on cysteine thiols of reduced disulfide bonds, positions not given
Kd [2]: ~0.2 nM
IC50, MOLM-14 cell viability, MTS assay, 24 h [3]: 50 nM
EC50, H460 cell viability, MTS assay, 24 h [4]: 60 nM

B7: SNS622 (antibody, V domains shown)
VH: QVQLQQSGPGLVKPSQTLSLTCAISGDSVSSNSAAWNWIRQSPSRGLEWLGRTYYRSKWYNDYAVSVKSRITINPDTSKNQFSLQLNSVTPEDTAVYYCARTGYSSSWVVNFDYWGQGTLVTVSS
VL: QPVLTQSPSASGTPGQRVTISCSGSSSNIGSNYVYWYQQLPGTAPKLLIYKNNQRPSGVPDRFSGSKSGTAASLAISGLQSEDEADYYCAAWDDSLRGYVFGTGTKLTVLG
Percent binding (H460 lysate): 92%
% Binding (HAAH catalytic domain): 97.6%
